Data published in publication PMC11584650, “An inhibitory segment within G-patch activators tunes Prp43-ATPase activity during ribosome assembly” (Nature Communications, 2024).

Legend:
[1] = molecular target: His6-Prp43 (S. cerevisiae) (UniProt P53131)
[2] = molecular target: His6-Prp43 (S. cerevisiae) (UniProt P53131); remark: listed apart in the source

Chain of His6-Prp43 (S. cerevisiae) (P53131 whole entry): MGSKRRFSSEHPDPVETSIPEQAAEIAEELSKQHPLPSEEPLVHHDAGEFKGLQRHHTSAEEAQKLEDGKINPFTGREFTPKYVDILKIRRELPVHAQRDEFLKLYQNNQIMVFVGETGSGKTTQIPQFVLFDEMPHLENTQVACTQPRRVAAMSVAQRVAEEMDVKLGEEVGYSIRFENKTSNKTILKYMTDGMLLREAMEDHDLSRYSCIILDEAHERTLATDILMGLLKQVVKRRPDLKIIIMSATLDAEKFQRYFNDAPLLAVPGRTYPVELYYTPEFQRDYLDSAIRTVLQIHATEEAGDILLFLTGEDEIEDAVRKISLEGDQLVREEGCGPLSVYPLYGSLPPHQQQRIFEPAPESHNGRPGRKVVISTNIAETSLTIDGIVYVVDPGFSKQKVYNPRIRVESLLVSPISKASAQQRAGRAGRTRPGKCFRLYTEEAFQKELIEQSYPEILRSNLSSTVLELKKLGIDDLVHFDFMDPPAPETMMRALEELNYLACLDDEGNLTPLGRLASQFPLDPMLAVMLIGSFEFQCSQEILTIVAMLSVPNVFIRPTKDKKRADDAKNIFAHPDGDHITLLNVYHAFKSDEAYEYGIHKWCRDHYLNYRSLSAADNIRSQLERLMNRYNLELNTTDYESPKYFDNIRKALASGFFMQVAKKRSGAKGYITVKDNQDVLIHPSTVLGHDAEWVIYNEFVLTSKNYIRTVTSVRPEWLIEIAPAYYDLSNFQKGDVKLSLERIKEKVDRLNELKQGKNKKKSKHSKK

| ATPase activity of the Prp43-T^G fusion against Prp43 with an equimolar amount of Tma23^G [1] [fold] | stimulation of Prp43 ATPase activity by Tma23^G added at a 1:1 or 10:1 molar ratio (NADH-coupled assay, 2.5 mM ATP) [2] [fold] | ATPase activity of the Prp43-P^G fusion against Prp43 with an equimolar amount of Pxr1^G [1] [fold] | Substance |
| --- | --- | --- | --- |
| 30 | 3 | – | GST-Tma23^G (domain or fragment) |
| – | – | 2 | GST-Pxr1^G (domain or fragment) |
